Test results published in PMC9798253 (Protein Science : A Publication of the Protein Society, 2023).

System: GST-TRD (TRD domain of MECP2)
Assay: GST-pulldown of MBP-ADD
Format: binding
Settings: 1 μg each protein; 25 mM Tris/HCl pH 8, 200 mM KCl; 1 h, 6°C; SDS-PAGE

B1: D529A/D530A/D531A triple mutation: D529A/D530A/D531A triple mutant of the ADD domain (MBP‐ADD in pulldown, mVenus‐ADD in cells) (protein)
chain: RERLVYEVRQKCRNIEDICISCGSLNVTLEHPLFVGGMCQNCKNCFLECAYQYAAAGYQSYCTICCGGREVLMCGNNNCCRCFCVECVDLLVGPGAAQAAIKEDPWNCYMCGHKGTYGLLRRREDWPSRLQMFFANNHD
modifications: left off: MBP, N-terminal, kept
In the case of B1, the “pulldown of MBP-ADD by GST-TRD” value is reported as “reduced”.
